Experimental data taken from the DeepSol protein solubility set.

Assay: soluble on expression in E. coli; label from the status in PepcDB or PDB records

With “MTVYHFVGIKGTGMSSLAQILHDMKHTVQGSDYEKRFFTQTALEKRNISILPFDKSNVKEGQVIIAGNAFPDTHEEIVAAKELNIPVHRYHHFLGDLMNQYTSVAVTGAHGKTSTTGLLAHVMQGAHPTSYLIGDGTGHGVENSKYFVFEACEYRRHFLSYNPDYAIMTNIDFDHPDYFTDINDVFSAFQEMALQVKKGIIACGDDEELQKIQAKVPVIFYGFGEDNDFQARNIQKRTDGTIFDVFVRNTYYDTFKITGYGNHSVLNALAVIALCHYENVDVEAVKHQLTTFEGVKRRFNEKPMGEQVIIDDYAHHPTEINATIEAARQKHPEREIVAVFQPHTFSRTEKFLDEFAESLSKADQVYLCDIFGSARENKGELTIEDLQKRIDGAELITDTTTDVLKKHKNGVLIFMGAGDIQKFEAAYVKEVQVAEK” the “soluble on expression in E. coli” value was “not soluble”.

With “MKFKQDFFTQLPEFYSQVYPQGISNPHWLAWSDDAAALIGLHQPTDELLQGLSGNAAVEGASYYAQVYSGHQFGGYTPRLGDGRSIILGEAIGPNGAWDVALKGGGPTPYSRHGDGRAVMRSAVREFLVSEALHHLGVPTTRALAVIGSDMPVWRESQETAAITVRLARSHIRFGHFEFFSHSERGQADKLTQLLNFTLKQHYPHLSCDPAGYKAWFLQVVQDSAKMIAHWQAIGFAHGVMNTDNMSILGDSFDFGPFAFLDTFQEDFICNHSDPDGRYAFGQQPGIGLWNLQRLAQALTPVIASDDLIAALNQYQHALVQHYLALMRAKLGLVQQADSSAEQDQQDLELIGRFTVLMEKNQLDYSHTWRRFGQLDPSSLHSSLRDDFIDLNEFDAWYQVYQARLGKVTDVEAWQQQCNRVNPKYILRNYLAQEAIIAVDEGNLAQLQRLHQVLRQPFTEQIEHEELAKRPPDWGQGLIMSCSS” the “soluble on expression in E. coli” value was “soluble”.

With “MGSDKIHHHHHHMRSLSEFIENSQDKREIQRALAVKMLLEGYTHVAIQSILDVSSGFISKWKKAFFTFGVEGLKLRYKGSQGFLNPQQRYCVIEWLKTKEKWNLSELEYEIASSYGVVFESKQSYYDLFDAAGISWKKTQAHNPKYDEELVASKKKEICELLETRRSEIESGKLVVFMVDECHLLWGDICGYVWGKTSERISVPVVNARDKQTYFGAIDYKTHEFITYAAKKGDSQNMINFLEYLQSQRPGANLLIIWDGASYHRSNAIQDYLDSLNRQLEQEQWLITCKRFAPNAPQQNPVEDIWLQAKKLIREFYFFCHSFSVVKALFELAVNGQIFDFPKLNEYGNFSQMI” the “soluble on expression in E. coli” value was “not soluble”.

With “MSLGTVHARSLEPLPASGPDFGALGEEAEFVEVEPEAKQEILENKDVVVQHVHFDGLGRTKDDIIMYEIRDVFKAKNLIEVMRKSHEAREKLLRLGIFRQVDVLIDTCQGDDALPNGLDVTFEVTELRRLTGSYNTMVGNNEGSMVLGLKLPNLLGRAEKVTFQFSYGTKETSYGLSFFKPQPGNFDRNFSVNLYKVTGQFPWSSLRETDRGVSAEYSFPTWKTSHTVKWEGVWRELGCLSRVASFAVRKESGHSLKSSLSHSMVIDSRNSSILPKRGALLKVNQELAGYTGGDVSFLKEDFELQLNKQLILDTVFSASLWGGMLVPMGDKPSSIADRFYLGGPTSVRGFSMHSVGPQSEGDYLGGEAYWAGGLHLYTPLPFRPGQGGFGELFRTHFFLNAGNLCNLNYGEGPKAHIRKLAECIRWSYGAGIVLRLGNIARLELNYCVPMGVQRGDRICDGVQFGAGIRFLEGHHHHHH” the “soluble on expression in E. coli” value was “not soluble”.

With “MSGAEQKVAYSLVSSGSLMSVNPGMARWIKELFCHNERVVLTGDWKHGFLSLTAVGATNVGSIRIHFN” the “soluble on expression in E. coli” value was “not soluble”.

For “MITQGPNLIGIHANEKENIETKKFVNWFLNQSITDWNSNNQQKNSDQTTKTAAEYFTDQASYILPLKEKFNKSSDLELKGSSSSSNLTTSSASASLLISNNSSTASSPAPKKTNNNSNTFTAKALELFQQAANNEIIPFSDPSDFRNGTFRNNISSSFNAAVNSK”, the “soluble on expression in E. coli” value was “soluble”.

For “MSLRLALRQVDGAALALRRCGEAWAGQDVRIAYPPSHGCWLKVAGADGSWQGWLQPRAWLRHMAPELASLASAAGMDDRLSELIAACEAPLSWPVADMPLGRIVAGERREGSQLPQRPMLRMDTPQGEVWLEKAPAPAEAARDRVPGWLPMPLRFLLGDSMVSPSLLRRAKAGDVLLISRPAQTVSCNGRAIGTYQWTEEGIIMEWQNEMAAAAETRPLADLDRLPVRLEFVLQQSEVTLDELRELCRSNVLPLSADAERRVELRANGALLGRGELVQLDGRLGVEVAQWLGGSGDVEEGHHHHHH”, the “soluble on expression in E. coli” value was “soluble”.

With “MSLSWIYDAHIHLSDPEYKSDMNMILNYMDLLKIKACCVSMDLETSNETMSLYEKSKNILPFIGIHPEMAQKESKPVYDLIEKNNEIISGVGEIGLDRTYIDTEDEWNVQKEVFSKQLSLAEKFNKPVSIHSRKTLSDIFEILPSYKIPGILLHWFDGNKSQLRTAMDNEYFVSYGPLLIYAHDKQTLLTKTDPNRLLVETDGPVKFSRCFEYKTTEIMFVSSVIFCASKLLHMPYEKLLEQIEGNSKRFLGIEGHHHHHH” the “soluble on expression in E. coli” value was “soluble”.

In the case of “MGSDKIHHHHHHMNTIHSCVLQIHLTIETKMADTKAIQQLDLNLLKIFEALYSEQNMTLASKSLFITPSAVSHAIKRLRLVLNDPLFVRQGLQMQPTAACQRMAPQLISALNRIRQVLQQCGEFDPLTTEQTFKIAIHEALESQIMPTLIKQVVKLIPHAKIASMSLSRENIARQLANGEVDLAIDVARAVNAPLAHKTLLSDPFCVLIDRRQHAMHLEPSTKLTPTDYANAEHVAVSSRPIGRVMEDILLQQQGVNRHIKYRCQSYQTAAKIVIGSPLMLTLPRSIAEQFIHPDLHVCTMPFELPDIDTHLYWHMNTETDPAFVWLRAQIEMAIIAE”, the “soluble on expression in E. coli” value was “not soluble”.

For “MEYGVLSWWDYGNWIVYVGKRPAVSNNFQTGVEDSANFLLTDSEEEAKTIVEKLKVKYVMTDTLMAEGKFSSITSLAGKEIGEYYEVETVKGDTGLRTVATPKQALLQTQVYKLHKLDGTSLGHFRLVHESAVNSTDDGNSKENTVKVFEYVKGATLEHHHHHH”, the “soluble on expression in E. coli” value was “soluble”.

In the case of “MGSDKIHHHHHHMMTQLSAPTLTKDPLTTQDRQIIATIVNQSDYSKNCKPEDVVTIWISEDDTTVWVKMIHGYARYHKQSFKRAVAEVKASLSAPVKCNHKEERELKQAAEKIGLLGDCDWLSLSVQYYPDKVIGHAGCYTSQKPQLLTPLAEWDFTLPKWNMPAAICPDCGGHGCGNCGYRGTRAEDLCKPVDGYRLTYVGRTDLQTAHNVYLDGEFLGILFKVRNADELWENDPKTYYWRCGDGVRYWSVKEAVEVLSRTTAPIELPQVCRELVAA”, the “soluble on expression in E. coli” value was “not soluble”.

In the case of “MSSSQVVRDSAKKLVNLLEKYPKDRIHHLVSFRDVQIARFRRVAGLPNVDDKGKSIKEKKPSLDEIKSIINRTSGPLGLNKEMLTKIQNKMVDEKFTEESINEQIRALSTIMNNKFRNYYDIGDKLYKPAGNPQYYQRLINAVDGKKKESLFTAMRTVLFGK”, the “soluble on expression in E. coli” value was “not soluble”.

With “MSLTEQRAVIAIYLRLSRESDDSTSLETQRSFAHRWLLAHGYDPADAVEYIDASVSGAKPLEARKGMAALMAARPTVVVAWKLDRFARSVSDFLRLVAWAEAHGASIATTDNAIDTTTATGRMVATVLAALAEWERNAIASRITDGHATRRSQGRWSSGRPPFGYRIERRDGAAYLAIDDDQAAKIRKAVAALVNGSTVAATARLTGLSEPQWRRLLKSPTLRGQRAHKGELVCEVDGITPVKFAEPILSAAELLKVRERMLALATGQDRAPRRATPMCSGMAFCHRCAGKLNGGTSDKGVPLYRCKAGHVTIYAETLDSRVESEFLTTFGSYAETVIRLEGGNDLSAELLEAKEQAERLAARMATAGPLMLGTLESLAQDLEDTHARLRAAHDPDVREVQVATGRTMAQAWEMYDVPDRSRLLAGMGLRVSLHPRQLADRLTITWGPTPEEAPEAEWDGLALSEAEGHHHHHH” the “soluble on expression in E. coli” value was “not soluble”.

With “MDKEETKTKPRLLRYEEKKYEDVKPLETQPAEIAEKETLEYKTVRTFSESLKSEKTEDYLRESIIQQHMVSPEPASLKEKGKSRRKKDQTHACPNVRKARPVSYDRTEPKDDDVIRNIIRLREKLGWQTILPQHSLKYGSSKIAIQKITLKKPLEDDGEFVYCLPRKSPKSLYNPYDLQVINIVGSVKE” the “soluble on expression in E. coli” value was “soluble”.

In the case of “MDYVCSVVFICQSFDLIINRRVISFKKNSLFIVSDKIRRELPVCPSKLRIVDIDKKTCLSFFIDVNNELPGKFTLDKNGYIAEEEPPLSLVFSLFEGIKIADSHSLWLKERLCISLLAMFKKRESVNSFILTNINTFTCKITGIISFNIERQWHLKDIAELIYTSESLIKKRLRDEGTSFTEILRDTRMRYAKKLITSNSYSINVVAQKCGYNSTSYFICAFKDYYGVTPSHYFEKIIGVTDGINKTID”, the “soluble on expression in E. coli” value was “not soluble”.

For “MNLIGKWIVGVGESVLNRMPLVRPIYKSIKQLFESVLKEHSNSFKKVGLIEFPSSGTWAMVFVSSEVKGELAHRFNEMGQQMVAVFLPPTPVPTAGFLLFVPKDKIVMLDMTPEDAAKLLISGGLVAPDFTPPKVIAPVLEHHHHHH”, the “soluble on expression in E. coli” value was “soluble”.

For “MHVGIVAQRGNERATSLAGEIREQLRALEVTVWVDTATAEALACAGECGRDTTAFTDCDLVVSIGGDGTFLFAARGAGATPILGVNLGEVGFLNAVAPADAVEAVREEVNRYRETGAVRCREVPRVVAAGDGWASTPALNEVAIQGEQRGHGHGVAVDVRVDGSQYEATRADGVLVATPTGSTAYNLSEGGPLVQPSVDALVVTEMCGADALPPLVTGLDSEIRIRVETLDDGGEGRVVVASDGGRLTRVDPPVEMTVTAADEPARVAGPAADFFEALSKLELEHHHHHH”, the “soluble on expression in E. coli” value was “not soluble”.

In the case of “MGHHHHHHSHMVVLRAGKKTFLPALCRAFACRGCQLAPERGAERRDTAPSGVSRFCPPRKSCHDWIGPPDKYSNLRPVHFYIPENESPLEQKLRKLRQETQEWNQQFWANQNLTFSKEKEEFIHSRLKTKGLGLRTESGQKATLNAEEMADFYKEFLSKNFQKHMYYNRDWYKRNFAITFFMGKVALERIWNKLKQKQKKRSN”, the “soluble on expression in E. coli” value was “not soluble”.

For “MHFPISMAVPARFTGPLPESCDVVVIGAGVIGVMTGWYLAERGFRVTVCEKGRVAGEQSSRNWGWIRQQGRDPDELPIMVESLRLWQGLAQSLGNPFGFRQTGVLYLANREEQLSQYEGWMIHAAAQGLDTRLLGRRELAERLPGAADLWQGGLFTASDARAEPWLAVPALAAGAAERGVTILEDCAVRALDLEGGRVAGVTTERGRIRAPEVVLAGGAWSSLFARAHGVNLPQLSVLSSVAQTEPLPEILPGAAADDAFAFRRREDGGYTIAGGSEHDFFIGPDAFRHALKYRKAVKKDFLSTHYRWLAPRDYPDGWNTPRTWSKGAPTPFEAMRVLNPAPNLATLSRAAAAFGRAFPGVGRPKIRATWAGMIDTMPDVVPVIDRAPSVPGLTIATGMSGHGFGIGPGVGRVVADLVAGRPVGHDLTRFRLSRFTDGSEITLGPSL”, the “soluble on expression in E. coli” value was “not soluble”.

For “MSMATVDPWMQNLPQITNQDFFHSSGIECWNRQFPDHRVVEENGPIKTKDALMILYFITVRNIRKNRNTITRIRDALKSPVSIFRRSPKLSLQEDVLSWQKSPESLAASEYGSKLFVQFLKQQTSADDVDFWLACAKHRWTEMTRDGYEYAAYMIYNTYVFWTCERKIDLLDKFCFVDDDGGTPRDVFITAQAYVGTKFPKDSHKKFLQDPIYLNFLHSVSSAANQQKK”, the “soluble on expression in E. coli” value was “not soluble”.

With “MGSDKIHHHHHHMSIKTFELISTTENGIQLISYVALPEAASDDNPVAGILVAPEWWGVVEHPKNVTERLAKAGYAAVAMDVYGEGKLTSDAAQANMWMEQVLADQDMLMARCRLILNDFSDQLAVDSDNLGAIGYCFGGKIVLDMAREGMPLKAVATFHGNPSPKQPADKQFSAKVLVAHGRDDSMVSMDAIEGLKAELDGADIDYTIDVYDGAKHGFTNPNADERAAKNGVDLGYNETAAKQSWDNMLEFMKDNLA” the “soluble on expression in E. coli” value was “not soluble”.

In the case of “MSGWNAYIDTMTAAAPSIKRCAIVGAADGSVWARTEADNVFKASEEELKTFVALFNDVTQVPAKGADIEGVHYVVPRTEESLIFGKKENTGFFAVKTKSAVLIAVYEGPNEVAAQVRKAVESMQTYLNNAGY”, the “soluble on expression in E. coli” value was “not soluble”.
